{"source": "patent US20180074053A1", "about": "(priority 2016, published 2018)", "key": {"HUVEC cells": {"tested_on": "HUVEC cells", "conditions": "4 mM time course, 0.05-32.0 mM for 60 minutes; FIGS. 16, 17", "procedure": "Briefly, HUVEC cells, previously plated in 96-well plate, were washed and the media changed to DMEM with 3% FBS for overnight incubation and cell starvation. On the day of the experiment, the cells were incubated with DAF-FM diacetate (Molecular Probes, catalog #D23842) at the final concentration of 7-10 nM for 30 minutes. […] Every treatment was performed in triplicate. The fluorescence was detected starting at 10 min with exc/em of 495 nm/515 nm.\nThe background signal (fluorescence signal from cells that were not loaded with dye) was subtracted from the other measurements.\nBriefly, HUVEC cells, previously plated in 96-well plate, were washed and the media changed to DMEM with 3% FBS for overnight incubation and cell starvation. On the day of the experiment, the cells were incubated with DAF-FM diacetate (Molecular Probes, catalog #D23842) at the final concentration of 7-10 nM for 30 minutes. […] Every treatment was performed in triplicate. The fluorescence was detected 60 minutes with exc/em of 495 nm/515 nm."}, "MRGD": {"molecular_target": "MRGD (Homo sapiens, UniProt Q8TDS7)", "sequence (Q8TDS7 whole entry)": "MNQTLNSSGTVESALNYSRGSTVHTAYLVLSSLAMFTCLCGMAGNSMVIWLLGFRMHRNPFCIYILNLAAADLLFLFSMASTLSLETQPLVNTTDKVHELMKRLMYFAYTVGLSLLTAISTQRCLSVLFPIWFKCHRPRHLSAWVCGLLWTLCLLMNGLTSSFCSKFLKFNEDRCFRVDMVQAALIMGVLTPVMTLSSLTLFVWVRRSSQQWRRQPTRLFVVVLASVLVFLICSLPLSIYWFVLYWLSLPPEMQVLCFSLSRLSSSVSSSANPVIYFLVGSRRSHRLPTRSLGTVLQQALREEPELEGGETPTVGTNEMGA", "test": "Calcium mobilization in MRGD over-expressing cells", "format": "cell-based", "parameters": "host or cells: ChemiScreen over-expressing cell line, given as 'HEK 293T cells (Chem-1, EMD Millipore)'", "conditions": "at 5 mM, highest dose used; Example 4", "description": "Cells were grown in DMEM medium containing 10% FBS, 1× non-essential amino acids (Gibco #111450-040), 20 mM HEPES and 250 μg/mL Geneticin® (Gibco #10131-035). Cells were harvested with 0.25% Trypsin/EDTA (Gibco #25200-056), pelleted at 1,200×g for 6 minutes and resuspended in DMEM media described above minus Geneticin®. The cells were seeded at 4×10^4 cells/well/100 μL of a clear bottom/black 96-well plate and grown overnight. The calcium mobilization assays was performed using Screen Quest Fluo-8 Medium Removal Calcium Assay Kit (AAT Bioquest #36308) according to the manufacturer's protocol. Briefly, cells were washed with 100 μL volume of Hank's balanced salt solution, 20 mM HEPES, pH 7.4 and loaded with a buffer containing HBSS, 20 mM HEPES, 1× Pluronic F127 and the Fluo-8 NW dye. The cells were incubated for 30 minutes at 37° C. followed by a 30 minute room temperature incubation. Drug stocks were prepared at 100× concentration and diluted 1:33 in HBSS, 20 mM HEPES, pH 7.4 in a 96-well plate (Corning #3641). Calcium mobilization was measured using the FlexStation 3 (Molecular Devices) at excitation wavelength of 490 nm and emission wavelength of 525 nm. Fluorescence was measured for 180 seconds at 5 second intervals with the addition of compound at a 1:3 dilution after 15 seconds. Peak fluorescence values were calculated using SoftMax Pro 5 (Molecular Devices). The fluorescence values obtained from control wells without cells are subtracted from wells containing treated cells to correct for background. The ratio of fluorescence values of treated cells to vehicle control wells was used to calculate fold activity of the compounds.\nMRGD cells (EMD Millipore, MA) were treated with either β-alanine, or alamandine at various concentrations (FIG. 10) and calcium mobilization was monitored using a FlexStation 3 Microplate Reader (Molecular Devices) as described in Example 4."}, "eNOS": {"tested_on": "eNOS", "test": "eNOS mRNA expression in HUVEC", "format": "cell-based, human", "conditions": "FIG. 15", "text": "It has been shown that activation of MRGD by alamandine plays an important role in vasodilation by increasing nitric oxide (NO) production. NO produced by the endothelium is an important protective molecule in the vasculature and is mainly generated by the enzyme endothelial NO synthase (eNOS) in blood vessels. Enhancing the expression of eNOS has been considered as possible therapeutic strategy for reducing cardiovascular risk."}, "MrgprD^−/− (KO) mice": {"tested_on": "MrgprD^−/− (KO) mice", "conditions": "0.5 mg/g with 2 mg/g glucose oral; P<0.05 KO vs. WT", "description": "(§1) The mice were fasted overnight and their fasting glucose levels were measured. […] Blood glucose levels were measured at 30, 60, 90 and 120 minutes after glucose loading.\nas §1"}, "[1]": {"tested_on": "C57/BL/6J mice and diabetic mouse models", "conditions": "previous studies (Zhang 2013; U.S. Pat. No. 8,664,177); cited from earlier work"}, "NMUR1": {"molecular_target": "T1, NMUR1 (UniProt Q9HB89 1-426, limits assumed)", "T1 sequence (looked up)": "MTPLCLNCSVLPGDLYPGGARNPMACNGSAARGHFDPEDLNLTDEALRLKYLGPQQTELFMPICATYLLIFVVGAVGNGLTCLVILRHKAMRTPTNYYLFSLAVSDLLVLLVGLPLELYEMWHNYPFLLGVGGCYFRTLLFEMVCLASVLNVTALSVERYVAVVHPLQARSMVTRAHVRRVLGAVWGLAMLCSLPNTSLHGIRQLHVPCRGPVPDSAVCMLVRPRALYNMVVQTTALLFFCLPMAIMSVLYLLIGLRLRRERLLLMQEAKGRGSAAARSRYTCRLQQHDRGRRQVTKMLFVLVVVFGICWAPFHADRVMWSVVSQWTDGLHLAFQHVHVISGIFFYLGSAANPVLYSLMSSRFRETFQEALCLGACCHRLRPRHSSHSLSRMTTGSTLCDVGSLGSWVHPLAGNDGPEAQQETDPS", "test": "cell-based or functional assay"}, "NPBW1": {"molecular_target": "T2, NPBW1 (UniProt P48145 1-328)", "T2 sequence (looked up)": "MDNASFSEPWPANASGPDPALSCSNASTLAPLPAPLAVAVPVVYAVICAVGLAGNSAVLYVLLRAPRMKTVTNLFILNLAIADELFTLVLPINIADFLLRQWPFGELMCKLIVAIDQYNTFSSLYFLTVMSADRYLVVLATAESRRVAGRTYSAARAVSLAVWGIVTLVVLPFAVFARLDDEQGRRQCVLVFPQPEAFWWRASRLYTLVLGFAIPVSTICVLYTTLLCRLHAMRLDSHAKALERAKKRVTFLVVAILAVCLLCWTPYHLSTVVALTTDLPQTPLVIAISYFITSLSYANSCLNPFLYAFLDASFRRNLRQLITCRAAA", "test": "cell-based or functional assay"}, "NK1": {"molecular_target": "NK1 (UniProt P25103 1-407)", "sequence (P25103 whole entry)": "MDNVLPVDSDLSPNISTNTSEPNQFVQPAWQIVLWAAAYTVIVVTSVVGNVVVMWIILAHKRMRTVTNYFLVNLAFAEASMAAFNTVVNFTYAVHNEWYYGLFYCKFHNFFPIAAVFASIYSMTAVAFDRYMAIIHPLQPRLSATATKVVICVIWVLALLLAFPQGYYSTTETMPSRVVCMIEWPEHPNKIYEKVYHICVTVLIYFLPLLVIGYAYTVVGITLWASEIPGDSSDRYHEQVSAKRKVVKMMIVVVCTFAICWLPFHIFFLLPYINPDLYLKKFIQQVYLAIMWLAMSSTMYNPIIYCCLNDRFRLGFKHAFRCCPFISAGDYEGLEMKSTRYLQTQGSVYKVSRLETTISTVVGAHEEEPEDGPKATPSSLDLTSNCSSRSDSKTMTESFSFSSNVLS", "test": "cell-based or functional assay"}, "NOP": {"molecular_target": "NOP (UniProt P41146 1-370)", "sequence (P41146 whole entry)": "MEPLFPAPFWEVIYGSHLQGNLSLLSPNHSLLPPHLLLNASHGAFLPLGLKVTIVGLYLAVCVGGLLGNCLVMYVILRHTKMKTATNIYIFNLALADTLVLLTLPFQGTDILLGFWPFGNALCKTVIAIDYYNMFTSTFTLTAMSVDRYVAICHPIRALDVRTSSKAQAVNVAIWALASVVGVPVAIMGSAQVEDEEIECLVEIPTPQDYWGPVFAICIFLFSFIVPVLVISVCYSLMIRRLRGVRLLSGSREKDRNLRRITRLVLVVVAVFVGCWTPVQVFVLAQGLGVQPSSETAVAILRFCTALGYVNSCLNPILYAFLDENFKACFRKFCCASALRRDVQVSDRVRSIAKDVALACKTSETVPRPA", "test": "cell-based or functional assay"}, "[2]": {"molecular_target": "Motilin (GPCR target; motilin receptor) (UniProt O43193 1-412, limits assumed)", "sequence (O43193 whole entry)": "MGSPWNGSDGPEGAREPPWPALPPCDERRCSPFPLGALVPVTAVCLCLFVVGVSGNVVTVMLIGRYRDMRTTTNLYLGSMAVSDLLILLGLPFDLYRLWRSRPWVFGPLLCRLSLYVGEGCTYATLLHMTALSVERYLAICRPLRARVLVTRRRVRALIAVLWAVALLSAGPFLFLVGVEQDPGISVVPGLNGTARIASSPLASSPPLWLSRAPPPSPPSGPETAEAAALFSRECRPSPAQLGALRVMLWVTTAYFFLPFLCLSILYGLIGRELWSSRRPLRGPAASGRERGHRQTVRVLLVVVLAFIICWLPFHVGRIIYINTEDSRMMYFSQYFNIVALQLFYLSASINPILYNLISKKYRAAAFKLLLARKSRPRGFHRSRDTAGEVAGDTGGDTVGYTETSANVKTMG", "test": "cell-based or functional assay"}}, "note": "Non-standard residues stand in square brackets, D forms with d. No end group written: not given here.", "data": [{"molecule": "CC(C)C[C@@H](NC(=O)CNC(=O)CN)C(=O)O", "values": [{"measurement": "nitric oxide (NO) release", "setting": "HUVEC cells", "value": "Stimulates Nitric Oxide Release"}, {"measurement": "calcium mobilization activity", "setting": "MRGD", "value": "active"}, {"measurement": "eNOS mRNA levels", "setting": "eNOS; 30 minutes, vs control", "value": "the same"}, {"measurement": "eNOS expression", "setting": "eNOS; 60 minutes", "value": "increased eNOS expression"}, {"measurement": "eNOS expression", "setting": "eNOS; 120 minutes", "value": "increased eNOS expression"}, {"measurement": "reduction of blood glucose levels in KO mice compared with WT mice (OGTT)", "setting": "MrgprD^−/− (KO) mice", "value": "significantly impaired"}, {"measurement": "blood glucose", "setting": "[1]", "value": "lower blood glucose"}]}, {"molecule": "Gly-Gly-[dL]", "note": "[DT-110, tripeptide glycine-glycine-D-leucine (GGdL)]", "values": [{"measurement": "percent activation (calcium flux, GPCRProfiler), DT-110 @ 1.25 mM, Avg.", "setting": "NMUR1", "value": 0.5, "unit": "%"}, {"measurement": "percent activation (calcium flux, GPCRProfiler), DT-110 @ 1.25 mM, n1", "setting": "NMUR1", "value": 1.3, "unit": "%"}, {"measurement": "percent activation (calcium flux, GPCRProfiler), DT-110 @ 1.25 mM, n2", "setting": "NMUR1", "value": -0.4, "unit": "%"}, {"measurement": "percent activation (calcium flux, GPCRProfiler), DT-110 @ 12.5 mM, Avg.", "setting": "NMUR1", "value": -0.1, "unit": "%"}, {"measurement": "percent activation (calcium flux, GPCRProfiler), DT-110 @ 12.5 mM, n1", "setting": "NMUR1", "value": -0.7, "unit": "%"}, {"measurement": "percent activation (calcium flux, GPCRProfiler), DT-110 @ 12.5 mM, n2", "setting": "NMUR1", "value": 0.5, "unit": "%"}, {"measurement": "percent activation (calcium flux, GPCRProfiler), DT-110 @ 1.25 mM, Avg.", "setting": "NPBW1", "value": 0.2, "unit": "%"}, {"measurement": "percent activation (calcium flux, GPCRProfiler), DT-110 @ 1.25 mM, n1", "setting": "NPBW1", "value": 1.6, "unit": "%"}, {"measurement": "percent activation (calcium flux, GPCRProfiler), DT-110 @ 1.25 mM, n2", "setting": "NPBW1", "value": -1.1, "unit": "%"}, {"measurement": "percent activation (calcium flux, GPCRProfiler), DT-110 @ 12.5 mM, Avg.", "setting": "NPBW1", "value": -0.9, "unit": "%"}, {"measurement": "percent activation (calcium flux, GPCRProfiler), DT-110 @ 12.5 mM, n1", "setting": "NPBW1", "value": -0.8, "unit": "%"}, {"measurement": "percent activation (calcium flux, GPCRProfiler), DT-110 @ 12.5 mM, n2", "setting": "NPBW1", "value": -0.9, "unit": "%"}, {"measurement": "percent activation (calcium flux, GPCRProfiler), DT-110 @ 1.25 mM, Avg.", "setting": "NK1", "value": -0.9, "unit": "%"}, {"measurement": "percent activation (calcium flux, GPCRProfiler), DT-110 @ 1.25 mM, n1", "setting": "NK1", "value": -1, "unit": "%"}, {"measurement": "percent activation (calcium flux, GPCRProfiler), DT-110 @ 1.25 mM, n2", "setting": "NK1", "value": -0.9, "unit": "%"}, {"measurement": "percent activation (calcium flux, GPCRProfiler), DT-110 @ 12.5 mM, Avg.", "setting": "NK1", "value": -1.1, "unit": "%"}, {"measurement": "percent activation (calcium flux, GPCRProfiler), DT-110 @ 12.5 mM, n1", "setting": "NK1", "value": -1, "unit": "%"}, {"measurement": "percent activation (calcium flux, GPCRProfiler), DT-110 @ 12.5 mM, n2", "setting": "NK1", "value": -1.1, "unit": "%"}, {"measurement": "percent activation (calcium flux, GPCRProfiler), DT-110 @ 1.25 mM, Avg.", "setting": "NOP", "value": -0.1, "unit": "%"}, {"measurement": "percent activation (calcium flux, GPCRProfiler), DT-110 @ 1.25 mM, n1", "setting": "NOP", "value": -7.8, "unit": "%"}, {"measurement": "percent activation (calcium flux, GPCRProfiler), DT-110 @ 1.25 mM, n2", "setting": "NOP", "value": 7.6, "unit": "%"}, {"measurement": "percent activation (calcium flux, GPCRProfiler), DT-110 @ 12.5 mM, Avg.", "setting": "NOP", "value": -2.3, "unit": "%"}, {"measurement": "percent activation (calcium flux, GPCRProfiler), DT-110 @ 12.5 mM, n1", "setting": "NOP", "value": 3.4, "unit": "%"}, {"measurement": "percent activation (calcium flux, GPCRProfiler), DT-110 @ 12.5 mM, n2", "setting": "NOP", "value": -8, "unit": "%"}, {"measurement": "percent activation (calcium flux, GPCRProfiler), DT-110 @ 1.25 mM, Avg.", "setting": "[2]", "value": -0.3, "unit": "%"}, {"measurement": "percent activation (calcium flux, GPCRProfiler), DT-110 @ 1.25 mM, n1", "setting": "[2]", "value": -0.3, "unit": "%"}, {"measurement": "percent activation (calcium flux, GPCRProfiler), DT-110 @ 1.25 mM, n2", "setting": "[2]", "value": -0.3, "unit": "%"}, {"measurement": "percent activation (calcium flux, GPCRProfiler), DT-110 @ 12.5 mM, Avg.", "setting": "[2]", "value": -0.4, "unit": "%"}, {"measurement": "percent activation (calcium flux, GPCRProfiler), DT-110 @ 12.5 mM, n1", "setting": "[2]", "value": -0.3, "unit": "%"}, {"measurement": "percent activation (calcium flux, GPCRProfiler), DT-110 @ 12.5 mM, n2", "setting": "[2]", "value": -0.5, "unit": "%"}]}]}
